From patent US20220372120A1 (GEMINI THERAPEUTICS SUB, published 2022)
Where “and” joins values, the source holds several entries; their conditions need not be identical. Identical values can stand only once.

Key:
[1] = biological target: purified C3b (Complement Technologies) (UniProt P01024); test: SPR (Biacore T200, 37 C), C3b amine-coupled to chip, pdFH injected alone, equilibrium analysis
Human purified factor H [2] = biological target: T1, Human purified factor H (human, UniProt P08603 19-1231); test: cell-based or functional assay
T1 sequence (P08603 19-1231): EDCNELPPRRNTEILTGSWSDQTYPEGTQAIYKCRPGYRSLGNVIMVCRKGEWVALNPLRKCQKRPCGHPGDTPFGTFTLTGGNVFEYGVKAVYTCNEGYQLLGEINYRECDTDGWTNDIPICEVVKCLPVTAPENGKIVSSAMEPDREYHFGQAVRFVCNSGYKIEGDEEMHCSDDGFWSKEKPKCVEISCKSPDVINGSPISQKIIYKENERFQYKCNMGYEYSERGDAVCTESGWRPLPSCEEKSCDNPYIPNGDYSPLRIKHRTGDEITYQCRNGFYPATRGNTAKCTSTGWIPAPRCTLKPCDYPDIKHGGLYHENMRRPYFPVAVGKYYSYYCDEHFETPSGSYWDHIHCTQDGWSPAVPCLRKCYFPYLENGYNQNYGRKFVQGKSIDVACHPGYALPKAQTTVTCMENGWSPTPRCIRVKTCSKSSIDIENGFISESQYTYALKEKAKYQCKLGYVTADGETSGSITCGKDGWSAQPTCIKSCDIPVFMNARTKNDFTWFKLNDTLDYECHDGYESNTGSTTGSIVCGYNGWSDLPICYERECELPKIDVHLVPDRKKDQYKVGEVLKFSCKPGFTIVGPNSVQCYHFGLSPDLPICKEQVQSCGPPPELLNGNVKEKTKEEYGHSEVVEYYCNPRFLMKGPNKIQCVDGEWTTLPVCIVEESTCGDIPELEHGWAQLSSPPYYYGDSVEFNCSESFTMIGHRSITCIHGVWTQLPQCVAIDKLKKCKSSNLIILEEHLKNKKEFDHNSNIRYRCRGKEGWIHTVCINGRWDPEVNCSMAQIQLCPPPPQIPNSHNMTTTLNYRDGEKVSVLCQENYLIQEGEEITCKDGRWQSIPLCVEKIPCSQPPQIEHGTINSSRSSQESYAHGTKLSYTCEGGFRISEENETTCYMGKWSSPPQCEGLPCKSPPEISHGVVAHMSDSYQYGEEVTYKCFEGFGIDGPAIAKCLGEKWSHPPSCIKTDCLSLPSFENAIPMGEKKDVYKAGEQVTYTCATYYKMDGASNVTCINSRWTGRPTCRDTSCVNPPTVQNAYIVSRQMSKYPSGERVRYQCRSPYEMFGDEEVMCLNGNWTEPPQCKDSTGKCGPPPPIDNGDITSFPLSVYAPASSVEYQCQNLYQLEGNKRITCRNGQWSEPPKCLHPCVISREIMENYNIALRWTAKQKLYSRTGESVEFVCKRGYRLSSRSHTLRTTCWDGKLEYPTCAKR

Human purified factor H [3] = biological target: T1, Human purified factor H; test: cell-based or functional assay; remark: listed apart in the source
Human purified factor H [4] = biological target: T1, Human purified factor H; test: cell-based or functional assay; remark: listed apart in the source
Human purified factor H [5] = biological target: T1, Human purified factor H; test: cell-based or functional assay; remark: listed apart in the source
Human purified factor H [6] = biological target: T1, Human purified factor H; test: SPR (BiaCore T200), antibody captured on Protein A or Protein G chip, full length FH flowed over
Procedure: To determine binding affinity of Antibodies 1-4, surface plasmon resonance (SPR) experiments were performed using a BiaCore T200 (GE Healthcare) and CMS sensor chips (GE Healthcare) in accordance with the manufacturer's instructions. Briefly, Antibodies […] or anti-FHR-1.3B4 were captured onto a Protein A or Protein G coupled chip and full length FH was flown over the captured moAB at decreasing concentrations.

Sequence of Human purified factor H (from UniProt P08603 19-1231) (P08603 19-1231): as above

Molecule | Kd [1] [nM] | IC50 of inhibition of C3b deposition on LPS, 10% normal human serum (Human purified factor H [2]) | IC50 of inhibition of C3b deposition on LPS, Replicate 1 (Human purified factor H [3]) | IC50 of inhibition of C3b deposition on LPS, Replicate 2 (Human purified factor H [3]) | IC50 of inhibition of SRBC hemolysis, first replicate (Human purified factor H [4]) | IC50 of inhibition of SRBC hemolysis, second replicate (Human purified factor H [4]) | IC50 of inhibition of SRBC hemolysis, 10% human serum with anti-FH.09 (Human purified factor H [5]) | Kd (Human purified factor H [6]) [nM] | koff (Human purified factor H [6]) [s⁻¹] | kon (Human purified factor H [6]) [M⁻¹ s⁻¹]
Human purified factor H (from UniProt P08603 19-1231) | 1300 | – | – | – | – | – | – | – | – | –
Antibody 1 (antibody, V domains shown) VH: QVQLQESGPGLVKPSQTLSLTCTVSGFSLTNYGVYWIRQHPGKGLEWIGVVWSGGTTEFNPSLKSRVTISKDTSKNQVSLKLSSVTAADTAVYYCARNFGNYAMDYWGQGTSVTVSS VL: DIQLTQSPSSLSASVGDRVTITCKASSSVTYLHWYQQKPGKAPKPLIYATSNLASGVPSRFSGSGSGTDFTLTISSLQPEDFATYYCQHRSSSNPLTFGAGTKLELK | – | 2.26 µg/ml and 15.1 nM | 3.5 µg/ml and 23.4 nM | 2.26 µg/ml and 15.1 nM | 10.7 µg/ml and 71.3 nM | 10.9 µg/ml and 72.7 nM | 10.6 ug/ml and 70.7 nM | 0.5 | 2.67e-05 | 53800
Antibody 2 (antibody, V domains shown) VH: QVQLQESGPGLVKPSQTLSLTCTVSGFSLTNYGVYWIRQHPGKGLEWIGVIWSGGTTEYNPSMKSRVTISKDTSKNQVSLKLSSVTAADTAVYYCARNFGNYAMDFWGQGTSVTVSS VL: DIQLTQSPSSLSASVGDRVTITCKASSSVTYLHWYQQKPGKAPKPLIYATSNLASGVPSRFSGSGSGTDFTLTISSLQPEDFATYYCQHRSSSNPLTFGAGTKLELK | – | 2.82 µg/ml and 18.8 nM | 3.68 µg/ml and 24.5 nM | 2.82 µg/ml and 18.8 nM | 11.4 µg/ml and 76.3 nM | 10.4 µg/ml and 69.3 nM | 10.1 ug/ml and 67.3 nM | 0.52 | 3.06e-05 | 58500
Antibody 3 (antibody, V domains shown) VH: QVQLQESGPGLVKPSQTLSLTCTVSGFSLTNYGVYWIRQHPGKGLEWIGVVWSGGTTEFNPSLKSRVTISKDTSKNQVSLKLSSVTAADTAVYYCARNFGNYAMDYWGQGTSVTVSS VL: DIQLTQSPSSLSASVGDRVTITCRASTSVTYMHWYQQKPGKAPKPLIYASSNLASGVPSRFSGSGSGTDFTLTISSLQPEDFATYYCQHRSSSNPLTFGAGTKLELK | – | 3.47 µg/ml and 23.1 nM | 4.14 µg/ml and 27.6 nM | 3.47 µg/ml and 23.1 nM | 11.1 µg/ml and 74 nM | 9.1 µg/ml and 60.7 nM | 9.4 ug/ml and 62.7 nM | 0.85 | 4.07e-05 | 48500
Antibody 4 (antibody, V domains shown) VH: QVQLQESGPGLVKPSQTLSLTCTVSGFSLTNYGVYWIRQHPGKGLEWIGVIWSGGTTEYNPSMKSRVTISKDTSKNQVSLKLSSVTAADTAVYYCARNFGNYAMDFWGQGTSVTVSS VL: DIQLTQSPSSLSASVGDRVTITCRASTSVTYMHWYQQKPGKAPKPLIYASSNLASGVPSRFSGSGSGTDFTLTISSLQPEDFATYYCQHRSSSNPLTFGAGTKLELK | – | 3.51 µg/ml and 23.4 nM | 4.34 µg/ml and 28.9 nM | 3.51 µg/ml and 23.4 nM | 11.5 µg/ml and 76.5 nM | 11.8 µg/ml and 78.5 nM | 11.5 ug/ml and 76.7 nM | 0.58 | 3.14e-05 | 55300
FHR-1.3B4 (antibody, V domains shown, Mouse monoclonal antibody raised in BALB/c mice against recombinant human FHR-1 (hybridoma); kappa light chain implied by capture on rat anti-mouse kappa RM19; also called anti-FHR-1.3B4; anti-FHR-1 3B4) VH: QVQLRQSGPGLVQPSQSLSITCTVSGFSLTNYGVYWVRQSPGKGLEWLGVIWSGGTTDYSAAFISRLSISKDNSKSQVFFKMNSLQADDTAIYYCARNFGNYAMDYWGQGTSVTVSS VL: QIVLSQSPTILSASPGEKVTMTCRASSSVTYMHWYQQKPGSSPKPWIYATSNLASGVPARFSGSGSGTSYSLTISRVEAEDAATYYCQQRSSSNPLTFGAGTKLELK | – | 38 nM and 5.7 µg/ml | – | – | – | – | 11.4 ug/ml and 76 nM | 0.91 | 5.32e-05 | 59500
